The target in assay [1] is ESCRT-I purified from E. coli (Vps23, Vps28, Vps37) (yeast) (UniProt P25604). The assay can be described thus: cross-linking.
The target of assay [2] is T1, ESCRT-I purified from E. coli (Vps23, Vps28, Vps37) (yeast, UniProt P25604 1-385; Q02767 1-242; Q99176 1-213).
T1 sequence (looked up) 1: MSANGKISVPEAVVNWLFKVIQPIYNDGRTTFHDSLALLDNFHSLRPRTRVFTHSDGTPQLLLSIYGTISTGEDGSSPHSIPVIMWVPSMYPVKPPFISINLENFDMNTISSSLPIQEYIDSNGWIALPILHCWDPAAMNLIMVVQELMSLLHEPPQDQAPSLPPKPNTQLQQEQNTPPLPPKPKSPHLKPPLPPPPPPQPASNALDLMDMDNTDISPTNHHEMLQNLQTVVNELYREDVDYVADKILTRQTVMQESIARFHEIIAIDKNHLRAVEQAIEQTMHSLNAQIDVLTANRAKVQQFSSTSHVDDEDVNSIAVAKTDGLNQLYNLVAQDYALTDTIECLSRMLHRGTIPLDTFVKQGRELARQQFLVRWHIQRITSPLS
T1 sequence (looked up) 2: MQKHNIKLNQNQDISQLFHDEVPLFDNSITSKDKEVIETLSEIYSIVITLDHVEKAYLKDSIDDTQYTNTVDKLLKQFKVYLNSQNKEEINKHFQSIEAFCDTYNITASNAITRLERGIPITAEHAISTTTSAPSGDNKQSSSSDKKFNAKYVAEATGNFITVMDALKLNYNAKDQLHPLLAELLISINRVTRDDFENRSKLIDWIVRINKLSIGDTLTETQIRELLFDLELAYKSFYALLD
T1 sequence (looked up) 3: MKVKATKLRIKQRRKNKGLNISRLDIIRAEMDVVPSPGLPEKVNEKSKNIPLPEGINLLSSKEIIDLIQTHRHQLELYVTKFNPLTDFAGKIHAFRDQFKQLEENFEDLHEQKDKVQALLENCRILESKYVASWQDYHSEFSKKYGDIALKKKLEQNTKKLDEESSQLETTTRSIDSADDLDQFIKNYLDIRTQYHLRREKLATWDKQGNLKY

Values joined by “and” are separate entries in the source; they are usually repeats but may differ in a detail not shown here. Identical values can stand only once.

For “ESCRT-I purified from E. coli (Vps23, Vps28, Vps37) (from UniProt P25604 1-385; Q02767 1-242; Q99176 1-213) (complex)”, the stoichiometry N in assay [1] is 2 and 3.

B1: Mvb12, E. coli-expressed (unpublished in vitro analyses) (natural protein, yeast, UniProt P42939 1-101, looked up)
chain: MNNNVEELLRRIPLYNKYGKDFPQETVTRFQMPEFKLPALQPTRDLLCPWYEECDNITKVCQLHDSSNKKFDQWYKEQYLSKKPPGIVGNTLLSPSRKDNS
As for B1, the “stoichiometry N” value in assay [2] was determined as 1.

These data come from paper PMC2064680 (The Journal of Cell Biology, 2006).
